B1: NFE2L1 (parent)
chain: TLDGYGIHPKSIDLDNYFTARRLL

Variants of: B1
Assay: protein stability index of a GFP-peptide fusion (GPS, HEK-293T) (PSI 1-6); higher = more stable
Conditions: c terminus: a fixed tail appended
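Note: lentivirally expressed fusions sorted by FACS into six bins by GFP to DsRed ratio, PSI derived from sequencing read proportions per bin multiplied by bin number.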

Protein stability index of substitutions, site by site:
R21: H 2.8, K 1.96, M 1.86, W 1.08, E 2.12
L14: I 2.12, E 3.11, K 2.49, Q 2.21, T 2.55, A 2.2, H 2.01, R 2.1, C 2.39, Y 2.25, D 2.71, N 2.17, M 2.02, F 1.82, V 1.71, S 2.62, P 2.31, G 2.31, W 1.95
I12: L 1.66, W 2.05, N 1.93, S 1.87, V 1.85, M 1.75, Y 1.99, T 1.99, R 1.93, P 3.06, Q 2.33
D15: C 1.48, I 2.47, W 2.21, K 1.72, P 2.06, E 1.96, L 1.57, G 2.3, F 2.6, Y 1.46, V 1.72, M 1.84, N 2.2, T 1.77, H 1.89, R 2.74, A 1.9, S 2.44, Q 1.84
T19: N 2.09, F 1.71, Y 1.8, A 2.01, G 1.89, C 1.69, I 2.03, H 2.32, P 2, W 2.08, M 1.67, Q 1.77, V 1.66, R 2.81, L 1.26, S 1.9, K 2.46, D 2.07, E 2.09
Y17: E 3.09, A 1.88, S 2.55, W 1.5, H 2.56, K 2.57, F 3.17, T 2.24, M 2.36, V 2.21, G 2.32, N 2.59, L 2.06, C 1.71, D 2.64, P 3.23, I 2.25, Q 2.92, R 2.58
F18: T 2.25, A 2.93, L 1.89, E 2.71, Q 2.69, H 2.34, M 2.08, V 3.05, N 3, G 2.67, C 2.03, S 2.16, P 2.89, W 1.7, K 2.88, R 2.31, D 3.26, I 1.92, Y 1.99
D13: P 2.26, T 2.11, C 2, Y 1.46, Q 2.01, F 1.48, S 1.83, M 1.64, G 2.25, H 1.64, L 1.73, N 2.1, E 2.45, K 1.72, R 1.91, W 2.21, A 1.84, V 1.76, I 2.77
A20: D 2.76, K 2.34, T 1.49, V 1.35, L 1.53, R 2.17, I 1.77, E 1.87, N 1.49, F 1.8, P 1.84, Q 2.23, W 2.04, Y 1.92, M 1.96, C 1.6, H 1.66, S 2.03, G 1.71
N16: D 2.03, A 1.72, P 1.98, Y 2.19, R 1.82, V 2.24, H 1.9, W 1.96, M 1.87, Q 1.8, F 2.63, C 2.51, S 2.6, K 1.39, T 1.76, G 1.21, I 3.1, E 2.19
